Test results as given in the RNAGym collection of RNA variant scans (doi:10.1021/acssynbio.7b00057).

B1: Pistol ribozyme (parent)
chain: GGGUCGUUGUUCCAUAAUCGCGUGGAUAUGGCACGCAAGUUUCUACCGGGCACCGUAAAUGUCCGACUGGAGCCGUUCGGGCGGCUAUAAACAGACCUCAGGCCCGAAGCGUGGCGGCACCUGCCGCCGGUGGUAAAAAAGAUCGGAAGAGCACACGUCU

Variants of: B1
Assay: aptazyme ON/OFF ratio, guanine; higher = stronger switching; co-transcriptional cleavage with and without guanine

Point of comparison: U7C G9A U10A U11G C12G C13A, “aptazyme ON/OFF ratio” value 1.12. Against it:
- U7C G9C C12A — lower, 1.03
- U7C G9C C12U — lower, 1.03
- U7C G9C C12G — lower, 1.04
- U7C G9C U10A U11A C12A C13G — lower, 1.08
- U7C G9C U10A U11A C12A C13U — lower, 1.06
- U7C G9C U10A U11A C12A C13A — lower, 1.09
- U7C G9A U10C U11G C13U — higher, 1.45
- U7C G9A U10C U11G C13A — higher, 1.19
- U7C G9A U10C U11G C13G — higher, 1.22
- U7C G9A U10A U11G C12G C13U — lower, 1.11
- U7C G9A U10A U11G C12G C13G — lower, 1.08
- U7C G9A U10C C12U C13G — higher, 1.16
- U7C G9A U10C C12U C13A — higher, 1.2
- U7C G9A U10C C12U C13U — higher, 1.14
- U7C G9C U10A — lower, 1.06
- U7C G9A U10G U11C C12A — higher, 1.28
- U7C G9A U10G U11C C12U — higher, 1.18
- U7C G9A U10G U11C C12G — higher, 1.32
- U7C G9A U11C C12U C13G — lower, 1.02
- U7C G9A U11C C12U C13U — lower, 1.11
- U7C G9A U11C C12U C13A — higher, 1.17
- U7C G9C U10A U11A C12A — higher, 1.16
- U7C G9C U10A U11A C12U — lower, 1.05
- U7C G9C U10A U11A C12G — lower, 1.09
- U7C G9A U10C U11G — higher, 1.42
- U7C G9A U10C U11C — the same, 1.12
- U7C G9A U10C U11A — higher, 2.6
- U7C G9A C12G C13G — higher, 1.2
- U7C G9A C12G C13U — higher, 1.23
- U7C G9A C12G C13A — higher, 1.18
- U7C G9A U10G U11G C12G C13G — lower, 1.05
- U7C G9A U10G U11G C12G C13U — lower, 1.07
- U7C G9A U10G U11G C12G C13A — lower, 1.07
- U7C G9A U10C U11C C12U C13U — lower, 1.07
- U7C G9A U10C U11C C12U C13G — lower, 1.04
- U7C G9A U10C U11C C12U C13A — lower, 1.04
- U7C G9A U10A U11A C12U C13U — higher, 1.19
- U7C G9A U10A U11A C12U C13G — higher, 1.25
- U7C G9A U10A U11A C12U C13A — higher, 1.18
- U7C G9A U10A — higher, 1.88
- U7C G9A U10C — higher, 4.55
- U7C G9A U10G — higher, 1.42
- U7C G9A U10G U11A C12G C13G — higher, 1.31
- U7C G9A U10G U11A C12G C13A — higher, 1.15
- U7C G9A U10G U11A C12G C13U — higher, 1.25
- U7C G9C U10A U11C C12A C13A — lower, 1.08
- U7C G9C U10A U11C C12A C13U — lower, 1.05
- U7C G9C U10A U11C C12A C13G — lower, 1.07
- U7C G9C U10A C12U C13A — lower, 1.08
- U7C G9C U10A C12U C13U — lower, 1.04
- U7C G9C U10A C12U C13G — lower, 1.07
- U7C G9C U10A U11A C13A — lower, 1.11
- U7C G9C U10A U11A C13G — lower, 1.05
- U7C G9C U10A U11A C13U — lower, 1.05
- U7C G9A U10G U11G C12U C13A — higher, 1.14
- U7C G9A U10G U11G C12U C13G — lower, 1.05
- U7C G9A U10G U11G C12U C13U — higher, 1.21
- U7C G9C C12G C13G — lower, 1.05
- U7C G9C C12G C13A — lower, 1.04
- U7C G9C C12G C13U — lower, 1.05
- U7C G9C C12A C13U — lower, 1.02
- U7C G9C C12A C13G — lower, 1.07
- U7C G9C C12A C13A — lower, 1.05
- U7C G9A U11C C12G C13G — higher, 1.17
- U7C G9A U11C C12G C13U — higher, 1.18
- U7C G9A U11C C12G C13A — higher, 1.29
- U7C G9A U10C U11A C13U — higher, 1.33
- U7C G9A U10C U11A C13A — higher, 1.18
- U7C G9A U10C U11A C13G — the same, 1.12
- U7C G9C U10A U11C C12G C13A — lower, 1.07
- U7C G9C U10A U11C C12G C13G — higher, 1.27
- U7C G9C U10A U11C C12G C13U — higher, 1.17
- U7C G9A U11G C13A — higher, 1.46
- U7C G9A U11G C13U — lower, 1.11
- U7C G9A U11G C13G — lower, 1.07
- U7C C12A — higher, 1.61
- U7C C12U — higher, 1.73
- U7C C12G — higher, 1.85
- U7C G9A U10G U11G C12U — higher, 1.28
- U7C G9A U10G U11G C12A — higher, 1.16
- U7C G9A U10G U11G C12G — higher, 1.23
- U7C G9A U10A U11C C12U C13G — lower, 1.05
- U7C G9A U10A U11C C12U C13A — higher, 1.24
- U7C G9A U10A U11C C12U C13U — higher, 1.23
- U7C G9A U10A C12G — higher, 1.18
- U7C G9A U10A C12A — higher, 1.15
- U7C G9A U10A C12U — higher, 1.35
- U7C G9A U11C C12A C13A — higher, 1.16
- U7C G9A U11C C12A C13U — higher, 1.15
- U7C G9A U11C C12A C13G — the same, 1.12
- U7C G9A U11A C12A — higher, 1.38
- U7C G9A U11A C12U — higher, 1.19
- U7C G9A U11A C12G — higher, 1.28
- U7C G9A U10G C12A C13A — higher, 1.15
- U7C G9A U10G C12A C13U — higher, 1.19
- U7C G9A U10G C12A C13G — lower, 1.08
- U7C G9A U10C U11C C12G C13G — the same, 1.12
- U7C G9A U10C U11C C12G C13U — lower, 1.04
- U7C G9A U10C U11C C12G C13A — lower, 1.09
- U7C G9A C12U C13U — higher, 1.22
- U7C G9A C12U C13G — higher, 1.18
- U7C G9A C12U C13A — higher, 1.22
- U7C G9A U10G C13U — higher, 1.34
- U7C G9A U10G C13G — lower, 1.02
- U7C G9A U10G C13A — higher, 1.19
- U7C C12G C13A — higher, 1.18
- U7C C12G C13G — higher, 1.17
- U7C C12G C13U — higher, 1.43
- U7C G9A U10A U11A C12G C13U — higher, 1.19
- U7C G9A U10A U11A C12G C13G — higher, 1.22
- U7C G9A U10A U11A C12G C13A — higher, 1.17
- U7C G9A U10C U11C C12A — higher, 1.34
- U7C G9A U10C U11C C12U — lower, 1.05
- U7C G9A U10C U11C C12G — higher, 1.2
- U7C G9A U11C C12A — higher, 1.2
- U7C G9A U11C C12U — higher, 1.17
- U7C G9A U11C C12G — higher, 1.22
- U7C G9A U10A U11G C12A — lower, 1.02
- U7C G9A U10A U11G C12G — higher, 1.15
- U7C G9A U10A U11G C12U — higher, 1.31
- U7C G9A U10G C12U C13U — lower, 1.11
- U7C G9A U10G C12U C13G — higher, 1.17
- U7C G9A U10G C12U C13A — higher, 1.2
- U7C G9C C13U — lower, 1.01
- U7C G9C C13A — lower, 1.03
- U7C G9C C13G — lower, 1.05
- U7C G9A C13A — lower, 1.05
- U7C G9A C13U — higher, 1.17
- U7C G9A C13G — lower, 1.03
- U7C G9C U10A C12U — lower, 1.06
- U7C G9C U10A C12A — lower, 1.04
- U7C G9C U10A C12G — lower, 1.09
- U7C G9C — lower, 1.03
- U7C G9A — higher, 1.17
- U7C G9A U10A U11A C12A C13A — higher, 1.2
- U7C G9A U10A U11A C12A C13G — higher, 1.23
- U7C G9A U10A U11A C12A C13U — higher, 1.29
- U7C G9A U10A C13A — higher, 1.23
- U7C G9A U10A C13U — higher, 1.34
- U7C G9A U10A C13G — lower, 1.03
- U7C G9A U11G C12G C13U — lower, 1.09
- U7C G9A U11G C12G C13A — higher, 1.19
- U7C G9A U11G C12G C13G — higher, 1.21
- U7C G9C C12U C13G — lower, 1.04
- U7C G9C C12U C13A — lower, 1.01
- U7C G9C C12U C13U — lower, 1.02
- U7C G9A U10A U11C C13G — lower, 1.04
- U7C G9A U10A U11C C13U — lower, 1.07
- U7C G9A U10A U11C C13A — lower, 1.03
- U7C G9A U11A C12A C13U — higher, 1.21
- U7C G9A U11A C12A C13G — the same, 1.12
- U7C G9A U11A C12A C13A — higher, 1.24
- U7C G9A U11G C12A C13A — higher, 1.22
- U7C G9A U11G C12A C13G — higher, 1.25
- U7C G9A U11G C12A C13U — higher, 1.14
- U7C G9A U10C C13A — lower, 1.07
- U7C G9A U10C C13U — higher, 1.96
- U7C G9A U10C C13G — lower, 1.06
- U7C G9A U10A C12G C13U — higher, 1.21
- U7C G9A U10A C12G C13G — higher, 1.18
- U7C G9A U10A C12G C13A — higher, 1.35
- U7C G9C U10A U11C C12A — lower, 1.07
- U7C G9C U10A U11C C12G — higher, 1.26
- U7C G9C U10A U11C C12U — lower, 1.04
- U7C G9A U10A C12A C13G — higher, 1.14
- U7C G9A U10A C12A C13A — higher, 1.17
